This assay deals with H-2K^b class I-determinants expressed on LM fibroblasts transduced with pBR327H-2K^b (mouse) (UniProt P01901). In words: flow cytometry staining of LM cells transduced with pBR327H-2K^b, control staining. (In general: A flow cytometer gives signals particle by particle.)
Chain of UniProt P01901 (P01901 22-369): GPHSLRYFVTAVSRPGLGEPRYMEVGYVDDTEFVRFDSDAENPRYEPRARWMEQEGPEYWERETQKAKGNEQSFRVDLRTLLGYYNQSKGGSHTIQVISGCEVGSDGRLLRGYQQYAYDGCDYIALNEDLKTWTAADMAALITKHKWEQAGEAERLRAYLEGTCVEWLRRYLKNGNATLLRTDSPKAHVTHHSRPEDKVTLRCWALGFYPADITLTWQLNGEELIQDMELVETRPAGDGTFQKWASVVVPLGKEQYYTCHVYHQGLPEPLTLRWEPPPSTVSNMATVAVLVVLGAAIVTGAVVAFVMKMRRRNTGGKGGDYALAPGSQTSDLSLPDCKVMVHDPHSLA

As to isotope control sera (antibody), the mean fluorescence index (MFI) came out at 0.3.

Source of the values: US20110014241A1.
